# Experimental data: PMC3433589 (Biochemistry, 2012)
# T1: human Glutaminase Interacting Protein (GIP) (human, UniProt O14907 1-124)
# T1 sequence (looked up): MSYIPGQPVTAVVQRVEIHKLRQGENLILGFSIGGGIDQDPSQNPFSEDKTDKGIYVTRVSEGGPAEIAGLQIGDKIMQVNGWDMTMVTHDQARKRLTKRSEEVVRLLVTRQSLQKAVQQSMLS
# Target: T1, human Glutaminase Interacting Protein …
# Assay: NMR titration
row,Binder,binding result
1,ASSSVDDMA [ASSSVDDMA peptide (synthetic)],binds
2,GSGTDLDAS [GSGTDLDAS peptide (synthetic)],binds
3,ESSVDLLDG [ESSVDLLDG peptide (synthetic)],binds
4,GSSLDVTDN [GSSLDVTDN peptide (synthetic)],binds

# Target: T1, human Glutaminase Interacting Protein …
# Assay: phage display selection
row,Binder,binding result
1,VSNLDTTND [phage clone displaying VSNLDTTND],binds
2,AISSVDSMG [phage clone displaying AISSVDSMG],binds
3,DSNLDVSVE [phage clone displaying DSNLDVSVE],binds
4,GYETSLDSN [phage clone displaying GYETSLDSN],binds
5,ASSSVDDMA [phage clone displaying ASSSVDDMA],binds
6,ESSVDMIGD [phage clone displaying ESSVDMIGD],binds
7,DGNLDSYDN [phage clone displaying DGNLDSYDN],binds
8,GSSSVDVDG [phage clone displaying GSSSVDVDG],binds
9,GSMNLDVQS [phage clone displaying GSMNLDVQS],binds
10,GSSLDVTDN [phage clone displaying GSSLDVTDN],binds
11,AYESSVDDN [phage clone displaying AYESSVDDN],binds
12,GSSVDLVGD [phage clone displaying GSSVDLVGD],binds
13,GGNLDVNVG [phage clone displaying GGNLDVNVG],binds
14,GSGTDLDAS [phage clone displaying GSGTDLDAS],binds
15,GTNLDGNGD [phage clone displaying GTNLDGNGD],binds
16,ESSVDLLDG [phage clone displaying ESSVDLLDG],binds
17,GSSLDVTSE [phage clone displaying GSSLDVTSE],binds
